Drawing on patent US20210206875A1, “ERBB-2 TARGETING AGENT AND A BISPECIFIC ANTIBODY WITH ANTIGEN-BINDING SITES THAT BIND AN EPITOPE ON AN EXTRACELLULAR PART OF ERB-2 AND ERBB-3, FOR TREATMENT OF AN INDIVIDUAL WITH AN ERBB-2, ERBB-2/ERBB-3 POSITIVE TUMOUR” (Merus N.V., priority 2017, published 2021), this text covers BxPC3 % Inhibition and MCF-7 IC50 (pM), HRG dependent proliferation for one molecule.

The assay has as its target human ErbB-3 (HER3), on cells (human) (UniProt P21860). The assay can be described thus: cell-based or functional assay.

B1: #Ab6 (antibody, from another filing, IgG1, V domains shown)
VH: EVQLLESGGGLVQPGGSLRLSCAASGFTFSHYVMAWVRQAPGKGLEWVSSISSSGGWTLYADSVKGRFTISRDNSKNTLYLQMNSLRAEDTAVYYCTRGLKMATIFDYWGQGTLVTVSS
VL: QSALTQPASVSGSPGQSITISCTGTSSDVGSYNVVSWYQQHPGKAPKLIIYEVSQRPSGVSNRFSGSKSGNTASLTISGLQTEDEADYYCCSYAGSSIFVIFGGGTKVTVL
Take B1: the BxPC3 % Inhibition is -7% and the MCF-7 IC50 (pM), HRG dependent proliferation is 504 pM.
